Source: article PMC10883916, “Cbp1 and Cren7 form chromatin-like structures that ensure efficient transcription of long CRISPR arrays”

Tests used:
Cbp1;Cren7 [1] = molecular target: T1, Cbp1;Cren7 (Saccharolobus (Sulfolobus) solfataricus …, UniProt Q97ZW9;Q97ZE3 1-150;1-60, |); experiment: EMSA; 12.5 nM Cbp1, 12.5-25 nM Cren7; two Cren7 recruited; EMSA: 800 pM DNA, 10 mM MOPS pH 6.5, 100 mM KCl, 10 mM MgCl2, 2 µg BSA, 10% glycerol, 5 mM DTT, 75 °C 5 min; long templates: 10 mM MOPS pH 6.5, 10 mM MgCl2, 105 mM KCl, 10% glycerol, 10 mM DTT, 5 µg/ml heparin, 2 mM spermidine, 65 °C; conditions: protein: recombinant;recombinant; tags: ;; copies: 1;2; label: 5'-32P; blunt
T1 sequence 1: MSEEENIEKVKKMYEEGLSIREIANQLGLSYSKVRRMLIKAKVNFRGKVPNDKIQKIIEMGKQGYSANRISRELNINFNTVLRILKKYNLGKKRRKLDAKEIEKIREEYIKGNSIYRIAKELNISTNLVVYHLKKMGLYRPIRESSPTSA
T1 sequence 2: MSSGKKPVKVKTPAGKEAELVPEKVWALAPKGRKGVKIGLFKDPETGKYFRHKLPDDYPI

Cbp1;Cren7 [2] = molecular target: T1, Cbp1;Cren7; experiment: EMSA; 12.5 nM Cbp1, 3.125-25 nM Cren7; second Cren7 at higher concentration; EMSA: 800 pM DNA, 10 mM MOPS pH 6.5, 100 mM KCl, 10 mM MgCl2, 2 µg BSA, 10% glycerol, 5 mM DTT, 75 °C 5 min; long templates: 10 mM MOPS pH 6.5, 10 mM MgCl2, 105 mM KCl, 10% glycerol, 10 mM DTT, 5 µg/ml heparin, 2 mM spermidine, 65 °C; conditions: protein: recombinant;recombinant; tags: ;; copies: 1;2; label: 5'-32P; blunt
Cbp1 [3] = molecular target: T2, Cbp1 (Saccharolobus (Sulfolobus) solfataricus …, UniProt Q97ZW9 1-150); experiment: EMSA; WT reference; EMSA: 800 pM DNA, 10 mM MOPS pH 6.5, 100 mM KCl, 10 mM MgCl2, 2 µg BSA, 10% glycerol, 5 mM DTT, 75 °C 5 min; long templates: 10 mM MOPS pH 6.5, 10 mM MgCl2, 105 mM KCl, 10% glycerol, 10 mM DTT, 5 µg/ml heparin, 2 mM spermidine, 65 °C; conditions: protein: recombinant; label: 5'-32P; blunt
T2 sequence: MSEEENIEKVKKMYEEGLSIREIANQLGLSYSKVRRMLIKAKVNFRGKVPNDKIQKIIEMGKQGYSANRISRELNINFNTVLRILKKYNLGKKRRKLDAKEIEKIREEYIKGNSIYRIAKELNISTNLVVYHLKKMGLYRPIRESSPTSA

Cbp1 ΔHTH1 = molecular target: T3, Cbp1 ΔHTH1 (S. solfataricus P2, UniProt Q97ZW9 1-1+51-150, internal_change); experiment: EMSA; 160 nM; unaffected by mutation vs ΔHTH1 on WT repeat; EMSA: 800 pM DNA, 10 mM MOPS pH 6.5, 100 mM KCl, 10 mM MgCl2, 2 µg BSA, 10% glycerol, 5 mM DTT, 75 °C 5 min; long templates: 10 mM MOPS pH 6.5, 10 mM MgCl2, 105 mM KCl, 10% glycerol, 10 mM DTT, 5 µg/ml heparin, 2 mM spermidine, 65 °C; conditions: protein: recombinant; label: 5'-32P; blunt
T3 sequence: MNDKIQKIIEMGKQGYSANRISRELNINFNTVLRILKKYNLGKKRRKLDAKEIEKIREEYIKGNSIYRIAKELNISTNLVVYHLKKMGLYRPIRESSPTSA

Cbp1 [4] = molecular target: T2, Cbp1; experiment: EMSA; not reduced vs WT repeat; EMSA: 800 pM DNA, 10 mM MOPS pH 6.5, 100 mM KCl, 10 mM MgCl2, 2 µg BSA, 10% glycerol, 5 mM DTT, 75 °C 5 min; long templates: 10 mM MOPS pH 6.5, 10 mM MgCl2, 105 mM KCl, 10% glycerol, 10 mM DTT, 5 µg/ml heparin, 2 mM spermidine, 65 °C; conditions: protein: recombinant; label: 5'-32P; blunt
Cbp1 ΔHTH3 = molecular target: T4, Cbp1 ΔHTH3 (S. solfataricus P2, UniProt Q97ZW9 1-87+136-150, internal_change); experiment: EMSA; 80 nM; no apparent effect of mutation; EMSA: 800 pM DNA, 10 mM MOPS pH 6.5, 100 mM KCl, 10 mM MgCl2, 2 µg BSA, 10% glycerol, 5 mM DTT, 75 °C 5 min; long templates: 10 mM MOPS pH 6.5, 10 mM MgCl2, 105 mM KCl, 10% glycerol, 10 mM DTT, 5 µg/ml heparin, 2 mM spermidine, 65 °C; conditions: protein: recombinant; label: 5'-32P; blunt
T4 sequence: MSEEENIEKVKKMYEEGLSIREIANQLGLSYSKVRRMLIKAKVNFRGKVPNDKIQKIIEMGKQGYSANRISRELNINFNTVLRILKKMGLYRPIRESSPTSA

Cbp1 [5] = molecular target: T2, Cbp1; experiment: EMSA; 12.5 nM Cbp1; stronger than CRISPR A; EMSA: 800 pM DNA, 10 mM MOPS pH 6.5, 100 mM KCl, 10 mM MgCl2, 2 µg BSA, 10% glycerol, 5 mM DTT, 75 °C 5 min; long templates: 10 mM MOPS pH 6.5, 10 mM MgCl2, 105 mM KCl, 10% glycerol, 10 mM DTT, 5 µg/ml heparin, 2 mM spermidine, 65 °C; conditions: protein: recombinant; label: 5'-32P; blunt
Cbp1;Cren7 [6] = molecular target: T1, Cbp1;Cren7; experiment: EMSA; 12.5 nM Cbp1, 3.125-25 nM Cren7; weaker Cren7 affinity than CRISPR A; EMSA: 800 pM DNA, 10 mM MOPS pH 6.5, 100 mM KCl, 10 mM MgCl2, 2 µg BSA, 10% glycerol, 5 mM DTT, 75 °C 5 min; long templates: 10 mM MOPS pH 6.5, 10 mM MgCl2, 105 mM KCl, 10% glycerol, 10 mM DTT, 5 µg/ml heparin, 2 mM spermidine, 65 °C; conditions: protein: recombinant;recombinant; tags: ;; copies: 1;2; label: 5'-32P; blunt
Cbp1;Cren7 [7] = molecular target: T1, Cbp1;Cren7; experiment: EMSA; 12.5 nM Cbp1, 3.125-25 nM Cren7; EMSA: 800 pM DNA, 10 mM MOPS pH 6.5, 100 mM KCl, 10 mM MgCl2, 2 µg BSA, 10% glycerol, 5 mM DTT, 75 °C 5 min; long templates: 10 mM MOPS pH 6.5, 10 mM MgCl2, 105 mM KCl, 10% glycerol, 10 mM DTT, 5 µg/ml heparin, 2 mM spermidine, 65 °C; conditions: protein: recombinant;recombinant; tags: ;; copies: 1;2; label: 5'-32P; blunt

B1: CRISPR A repeat 1, 20 bp downstream (dsDNA)
DNA 1: GGAAGTATAAAAACACAACAGATTAATCCCAAAAGGAATTGAAAGGAACTAGCTTATAGTTTAGA
DNA 2: TCTAAACTATAAGCTAGTTCCTTTCAATTCCTTTTGGGATTAATCTGTTGTGTTTTTATACTTCC
Does B1 bind (Cbp1;Cren7 [1])?
Result: binds

B2: CRISPR A repeat, 20 bp flanks (Fig. 1e) (dsDNA)
DNA 1: CATCTTCTCTCATCACCTTCGATTAATCCCAAAAGGAATTGAAAGAATGTATAAAGGTAACCAGG
DNA 2: CCTGGTTACCTTTATACATTCTTTCAATTCCTTTTGGGATTAATCGAAGGTGATGAGAGAAGATG
Does B2 bind (Cbp1;Cren7 [2])?
Result: binds

B3: CRISPR A repeat 1, 5 bp flanks (WT) (dsDNA)
DNA 1: CAACAGATTAATCCCAAAAGGAATTGAAAGGAACT
DNA 2: AGTTCCTTTCAATTCCTTTTGGGATTAATCTGTTG
Does B3 bind (Cbp1 [3])?
Result: binds

B4: CRISPR A repeat 1 A6C/T7G (dsDNA)
DNA 1: CAACAGATTACGCCCAAAAGGAATTGAAAGGAACT
DNA 2: AGTTCCTTTCAATTCCTTTTGGGCGTAATCTGTTG
Does B4 bind (Cbp1 ΔHTH1)?
Result: binds

B5: CRISPR A repeat 1 A13C/A14C (A13C/T14G in text) (dsDNA)
DNA 1: CAACAGATTAATCCCAACCGGAATTGAAAGGAACT
DNA 2: AGTTCCTTTCAATTCCGGTTGGGATTAATCTGTTG
Does B5 bind (Cbp1 [4])?
Result: binds

B6: CRISPR A repeat 1 A22C/A23C (dsDNA)
DNA 1: CAACAGATTAATCCCAAAAGGAATTGCCAGGAACT
DNA 2: AGTTCCTGGCAATTCCTTTTGGGATTAATCTGTTG
Does B6 bind (Cbp1 ΔHTH3)?
Result: binds

B7: CRISPR A repeat 1 T19G/T20G (dsDNA)
DNA 1: CAACAGATTAATCCCAAAAGGAAGGGAAAGGAACT
DNA 2: AGTTCCTTTCCCTTCCTTTTGGGATTAATCTGTTG
Does B7 bind (Cbp1 ΔHTH3)?
Result: binds

B8: CRISPR F repeat, 20 bp flanks (dsDNA)
DNA 1: AAAATTATTGACAAAAATAGGCTAATCTACTATAGAATTGAAAGCTACACCGATTCCGATACCC
DNA 2: GGGTATCGGAATCGGTGTAGCTTTCAATTCTATAGTAGATTAGCCTATTTTTGTCAATAATTTT
What does the source list for B8?
binding result (Cbp1 [5]): binds; binding result (Cbp1;Cren7 [6]): binds

B9: CRISPR A repeat 1, 2 bp downstream (dsDNA)
DNA 1: GGAAGTATAAAAACACAACAGATTAATCCCAAAAGGAATTGAAAGGA
DNA 2: TCCTTTCAATTCCTTTTGGGATTAATCTGTTGTGTTTTTATACTTCC
Does B9 bind (Cbp1;Cren7 [1])?
Result: binds

B10: CRISPR D repeat, 20 bp flanks (dsDNA)
DNA 1: AACTAACAAATATACGCCTTGATAATCTCTTATAGAATTGAAAGTCAATTTGTGAAACTTGTCC
DNA 2: GGACAAGTTTCACAAATTGACTTTCAATTCTATAAGAGATTATCAAGGCGTATATTTGTTAGTT
Does B10 bind (Cbp1;Cren7 [6])?
Result: binds

B11: ISC1229 non-canonical Cbp1 binding site (dsDNA)
DNA 1: AACTTCAAGCATAGTGTCAACTAAGATTGCCACGTGAATTGAAAGGATTCACGTGGCGATTTTGG
DNA 2: CCAAAATCGCCACGTGAATCCTTTCAATTCACGTGGCAATCTTAGTTGACACTATGCTTGAAGTT
Does B11 bind (Cbp1;Cren7 [7])?
Result: binds
